From the DeepSol protein solubility set

Assay: soluble on expression in E. coli; label from the status in PepcDB or PDB records

Sequence	soluble on expression in E. coli
MAHHHHHHMGTLEAQTQGPGSMAKTMKAAVVRAFGKPLTIDEVPIPQPGPGQIQVAIQASGVCHTDLHAAEGDWPVKPNPPFIPGHEGVGFVSAVGSGVKHVKEGDRVGIPWLYTACGHCRHCLGGWETLCEEQLNTGYSVNGGFAEYVVADPNFVGHLPKNIDFNEIAPVLCAGVTVYKGLKVTDTKPGDWVVISGIGGLGHMAVQYARAMGLNVAAVDIDDRKLDLARRLGATVTVNAKTVADPAAYIRKETDGGAQGVLVTAVSPKAFEQALGMVARGGTVSLNGLPPGDFPLSIFNMVLNGVTVRGSIVGTRLDLQESLDFAADGKVKATIQTGKLEDINAIFDDMRQGNIEGRIVMDLTQ	soluble
MDLFLALRELGRPDQMNLSYLYLKKILEEELRDHDCQCQLNPDFTVTISCRVDGPHGALYIVPNSDFLKSSSFSDLSAFILNLREEIRRFGEFEAELQTGTG	not soluble
MEVRFKIYRYNPEVDKKPYYDEYTVEVENEGVKVLTALELIKEQDPTLALRRSCREGVCGSDGMNINGKNRLACITSVGELKQPIKVNPLPGLPVIRDLIVDMKQFYKNYEKVKPYLINDDEPPVKERLQSPEDRAKLDGLYECILCACCTTSCPSFWWNPDKFIGPSGLLQAYRFIADSRDTATEQRLEDLKDPFSLFRCRTIMNCVSVCPKGLNPTEAIGKIRSALLKKNV	not soluble
MSNINIRVAHEQDAEELHSIMQIAFTPLRELGIDWPSVHADLEMVKDNLRQNTTFVLENEKEIISTITVCYSWSSVKPISGYPFVWWFATRPTYDGQGYGSQLLKYAEETFLRDTLKAAAVTLGTSARLHPWLLNIYEKRGYEIYAKHENDDGDLGVIMRKILIPEQFNDDILGRPPF	not soluble
MFEKSFTLCDMEPTEINGGRFYARPLHNDERIDDSPALQLVDAHLTVDEARTAWNHDTIYTWAVCEQTNVEMIALAALHITETATVLDIAPVGDPNRKLPNDPVLTPKTVGDAVTEIRGPITRWCTAHGINISN	not soluble
MIRRAPTTLQLSHDDVTSLIDDLNEQKLKQQLNIEKTKYFQGKNGGSLHSNTDFQDTSQNIEDNNNDNDNDIDEDDDMSSYNDKAASVAHTRVLNSLHLSTDSNTAHETSNANDNHNPFYIREE	not soluble
MAVKVKKILISQPQPVAGRSPYYDIAQKHGCEVVFRPFIQVESVSAREFRNQKVNILDHSAIIFTARTAIDHFFSLCEELRVTVPETMKYFCVSESVAVYLQKHIVYRKRKIFFGATGKLEDLLTVISKHNKETYFVPLAEEHKHDLLDMLTAKKVSFSPAIMYRTVSNDFGPDEALDHDMILFFSPSGITALLKNFPKFEQGKTKIGAFGPTTAKAVEEAGLRLDLSAPTEQYPSMAMALEDYLNGK	not soluble
MGSDKIHHHHHHMSKTLKEITDQKNELKKFFENFVLNLEKTEIFSEIQKNLTDEVLFVGCGSSYNLALTISYYFERVLKIRTKAIPAGEVAFQKIPDLEERGLAFLFSRTGNTTEVLLANDVLKKRNHRTIGITIEEESRLAKESDLPLVFPVREEAIVMTKSFSMILLSLMFLADKIAGNSTERFSELVGYSPEFFDISWKVIEKIDLKEHDHFVFLGMSEFFGVSLESALKCIEMSLTFSEAYSTLEYRHGPKALVKKGTLVFMQKVSGMDEQEKRLRKELESLGATVLEVGEGGDIPVSNDWKSAFLRTVPAQILGYQKAISRGISPDKPPHLEKTVVL	soluble
MDAYPEAEAPPQSIVELVPVLIAVTDGGLRVLTVAQGMLLPNGPLSPLRNSLQAGVKLWVAKQTSQPMGYVEQLYTFVDTHRRNEHGMPVLYVSYLGLVREAADSILHPDAKWQDCYGYFPWEDLRTDGGQRDAVVGRLRIWANSADTEEVRQKRLKRIHLCWGVEPENWSEEYVLQRYEMLYESGLIAEAAEPQANFDFALTGQPMRHDHRRVLATALSRLRAKIKYRPVIFELMPPEFTLLQLQNSVEAISGRLLHKQNFRRQIQQQNLIEPSDTGVSGSKGRPAQLCRFRDDVLPDRLISDIGLPLGSR	not soluble
GMKFNEFLNNLSNYEPGKDIEVIAKEYGVKEVIKLASNENPFGTPPKAIECLRQNANKAHLYPDDSMIELKSTLAQKYKVQNENIIIGAGSDQVIEFAIHSKLNSKNAFLQAGVTFAMYEIYAKQCGAKCYKTQSITHNLDEFKKLYETHKDEIKLIFLCLPNNPLGECLDASEATEFIKGVNEDCLVVIDAAYNEFASFKDSKKHLEPCELIKEFDNVLYLGTFSKLYGLGGLRIGYGIANANIISAFYKLRAPFNVSNLALKAAVAAMDDDEFTEKTLENNFSQMELYKEFAKKHNIKIIDSYTNFITYFFDEKNSTDLSEKLLKKGIIIRNLKSYGLNAIRITIGTSYENEKFFTEFDKILR	soluble
MALIGRQTTIQMIDLEPELPTQKDYQSDILRELTQIRNENLEYNRLEVYVLELEQIMRIRMIVDLLDLGGRLNSETLLQMCYRLVNQETDLENLRNFRDSQFAQEEQRRDRLREIGQRIFNRFEQQQEEAAGNREGSEAGERPSKENIEFRIWRFLSVLQHQDGLERLDELEREIAVRREMNAADQFQEGQDFFARINPDIVAEGIPHHNNRDNIPIERQYRTEFIQLANDLQSPPDDVRLDVFRRLIDLGVQFQESRLEQDRQRIQEEPQRQREGEIMDQLNDSVKGDMRRLNPMAPGNASGNIQQEGAGIETDVDVDDELEDEYSGSDSSQDVEEVPEESSERYVADTGSATNQPSSSTSEPNAGNEEVEDPSQRTRKRGNGSELSDAKRTN	soluble
MSLTLYKPNETDFTHNGIGALDKNIYNATVEEELNGLFLFSFSYPLFAPHGLEIEGMSIIKVPTPDGEQLFRVAAPKASMGEVTAQCYHIFYDLTENLIEDIFAETTNGNGAMNRMSAGCQYKHPFQFYSDVPKIASARIVRKNPVEALLDSSQDNSFVNRWGGELKRDNFDVKMLQNRGMDRGVVIRHKKDLLGYEGNVDWKSPITRIMPQGFDGLFLPEKYVDSPLINKYPHPKIKVVEFKHIKAAIGENADDEDAVPLEEAYRLLRQAAKGMFTIQKADQPKATYNVKFQELSQTEEYKDYKHLQSVYMADTVTVEHQEDGIDIKAKVIAYKYDPIKKEYLDVTIGNFKESFTDVSGRVDLVQEELSNMPSSILDAAKVNATSLINSGFGGHVRVYPNRILIMDTKDEKSAKKVWQWNLNGLGYSSTGVNGPYGTAITSDGRIVADFITAGTLSGNFVRGGEITGSTEGHHHHHH	soluble
MGSDKIHHHHHHMVEQLKPRYSSVWINKIAEVPQDAWDALALPLKTPFLEWDWLNNLETSHSATAKTGWLPNHLTLWRDRTLIAVAPLYIKGHSYGEFVFDHQWAELAERIGVQYYPKLLGMTPFTPAEGYRFLIADGEDEEEITAMMVHEIDSFCVKHNISSCHFLYVDPQWQPVLEKQGFTAWLHHSFIWENSGFQNFDDYLTVFNANQRRNIKRERKAVEKAGLQLQAVTGDAIPKSLFPLMYQFYADTCDKFGWWGSKYLTKQFFEQLHHNYRHRVVFFPAYHEQDPRQPLGMSFCLFKDDRLYGRYWGSFQEIDCLHFDACYYAPIEWAIANGIQSFDPGAGGRHKKRRGFPAAPNYSLHRFYNSRLGQILRPYINEVNQLEEQEIAAINAELPFSQK	not soluble
MDVEAFYKISYGLYIVTSESNGRKCGQIANTVFQLTSKPVQIAVCLNKENDTHNAVKESGAFGVSVLELETPMEFIGRFGFRKSSEFEKFDGVEYKTGKTGVPLVTQHAVAVIEAKVVKECDVGTHTLFVGEAVDAEVLKDAEVLTYADYHLMKKGKTPRTATVYFESK	soluble
MGSDKIHHHHHHLYNNSANTQFTGKSIHFLPSCHSTNTEASLLIRAQKAVNGLIVITNEQTAGRGQQGNSWLSKADSNLTFSVIFFPEKLHLKDSFYLNIVSSLSIAKTVDELVPENIVKVKWPNDILLNNKKVCGILIENMLRGEHIHAVVMGIGVNVNHSDGNLPFAGAMSSEAAKTFHLQEVFTRICENLEPYYLMLEQGLFAELDALYLQNLYGLNEKKHFSDSEGNFTGTIQAVLPGGLLQVEKESGVIKQYTFKEVSLVK	not soluble
MNTDHERWRTEYAGGTAVAYDDKVVLQGDSARLAGLLQDGGGRAHIYFDGASRGNPGPAAIGWVIVTDDGIVAEGSERIGRATNNQAEYEALIEALAAAADYAFDEAVVKGDSQLIVKQVRGEWDTNDPTLREKRVRVRKLLEEFSEWSLDHVPREINDRADDLANEALDGLEHHHHHH	soluble
MGSDKIHHHHHHVLQLESIGVMDNYNKDLTPDQASAFLEVVDASLRIKKKAQLFSWLQGHFQFLLPHEVLLCGFAVGVGRNFSLETFSSTRYVTDAQVAIAMHERTGVVMKAIQAWRQTSQPVLIDPYLKDGNFGRFTVPKIDQVNLQESELRNIAAYGLSSADGSISSFFSFSRISGELNASHAYMLELLVPYLHSVLMRVSDGVFNFGDAMGEGVNAGIITPREKEILQWVHTGKSNWEIATILEISPLTVKNHMQNILRKLDVQNRSHAAAKAYRLGLIRH	not soluble
MSTTDDTHNTLSTGKCPFHQGGHDRSAGAGTASRDWWPNQLRVDLLNQHSNRSNPLGEDFDYRKEFSKLDYSALKGDLKALLTDSQPWWPADWGSYVGLFIRMAWHGAGTYRSIDGRGGAGRGQQRFAPLNSWPDNVSLDKARRLLWPIKQKYGQKISWADLFILAGNVALENSGFRTFGFGAGREDVWEPDLDVNWGDEKAWLTHRHPEALAKAPLGATEMGLIYVNPEGPDHSGEPLSAAAAIRATFGNMGMNDEETVALIAGGHTLGKTHGAAAASHVGADPEAAPIEAQGLGWASSYGSGVGADAITSGLEVVWTQTPTQWSNYFFENLFKYEWVQTRSPAGAIQFEAVDAPDIIPDPFDPSKKRKPTMLVTDLTLRFDPEFEKISRRFLNDPQAFNEAFARAWFKLTHRDMGPKARYIGPEVPKEDLIWQDPLPQPLYQPTQEDIINLKAAIAASGLSISEMVSVAWASASTFRGGDKRGGANGARLALAPQRDWDVNAVAARVLPVLEEIQKTTNKASLADIIVLAGVVGIEQAAAAAGVSISVPFAPGRVDARQDQTDIEMFSLLEPIADGFRNYRARLDVSTTESLLIDKAQQLTLTAPEMTVLVGGMRVLGTNFDGSQNGVFTDRPGVLSTDFFANLLDMRYEWKPTDDANELFEGRDRLTGEVKYTATRADLVFGSNSVLRALAEVYACSDAHEKFVKDFVAAWVKVMNLDRFDLQ	not soluble
QPVACPDCGPTLRLVDASGAGLPGDPVDQTVELLTEGKIVAIKGLGGYHLAVDAANDAAVAELRRRKHRDEKPFAVMARDMEAVARFALVDSVEARLLTGPEHPIVLLRKRPSTILSGRVAPANGYIGTMLPYTPLHHLLLEERFAALVMTSGNLSDEPISYRDDEAVERLSAIADAFLVHDREIRTRIDDSVIRVFRGSPLFLRRSRGYVPREVRLPVEIP	not soluble
AHHHHHHASAKWVCKICGYIYDEDAGDPDNGISPGTKFEELPDDWVCPICGAPKSEFEKLEDGSRFIDANVFIYAILKPKRELNEKELKIKRVSKEIFNRINGGEEVVTTVVHLSEVANVLEDAANLSFAISFLKDVLIKGNVIVEEVSDRDYMESVLLAEEKGVSINDALAYILMKRKGIEEIYTFDRHFENLDVRIVNS	soluble
MTQQGAALQNYNNELVKCIEELCQKREELCRQIQQEEDEKQRLQNEVRQLTEKLARVNENLARKIASRNEFDRTIAETEAAYLKILESSQTLLSVLKREAGNLTKATASDQKSSGGKDS	not soluble
MENFAVIDLGSNSCRMTITQIQEDGSYAVTHRLKEMVRLSENENATDTPTLQAEAIDRTIAALKSFAAVYKDLPNLTIKAVATAATRKASNQKKFLKRVKNDVGLDIEVIPGTTEAYYDYLGVVNTLPTTNCVMVDTGGGSCELVLIVNGQAKDLISLPIGAVSLSEKFGLNDQVTASQLFKTMTFVDKIFNSVWWLRNGLNLPLVCLGGSNRTLAKINRRKCNILNFEDIHGYRLRDNAIYDTFNTVISQDAAGRAAIPGLAKDRADIIVGGMIPAISLMRFLDSDRMIFSQNGLREGILFEHLTALAEQSAKVSELEHHHHHH	not soluble
